Assay results taken from article PMC6477152 (2019).

B1: FIP200ΔN1115:Luciferase [human] / GST:NDP52 [human] (parent complex)
chain 1: ENYQVGLAELRTLMTIEKDQCISELISRHEEESNILKAELNKVTSLHNQAFEIEKNLKEQIIELQSKLDSELSALERQKDEKITQQEEKYEAIIQNLEKDRQKLVSSQEQDREQLIQKLNCEKDEAIQTALKEFKLEREVVEKELLEKVKHLENQIAKSPAIDSTRGDSSSLVAELQEKLQEEKAKFLEQLEEQEKRKNEEMQNVRTSLIAEQQTNFNTVLTREKMRKENIINDLSDKLKSTMQQQERDKDLIESLSEDRARLLEEKKKLEEEVSKLRSSSFVPSPYVATAPELYGACAPELPGESDRSAVETADEGRVDSAMETSMMSVQENIHMLSEEKQRIMLLERTLQLKEEENKRLNQRLMSQSMSSVSSRHSEKIAIRDFQVGDLVLIILDERHDNYVLFTVSPTLYFLHSESLPALDLKPGEGASGASRRPWVLGKVMEKEYCQAKKAQNRFKVPLGTKFYRVKAVSWNKKV
chain 2: MEETIKDPPTSAVLLDHCHFSQVIFNSVEKFYIPGGDVTCHYTFTQHFIPRRKDWIGIFRVGWKTTREYYTFMWVTLPIDLNNKSAKQQEVQFKAYYLPKDDEYYQFCYVDEDGVVRGASIPFQFRPENEEDILVVTTQGEVEEIEQHNKELCKENQELKDSCISLQKQNSDMQAELQKKQEELETLQSINKKLELKVKEQKDYWETELLQLKEQNQKMSSENEKMGIRVDQLQAQLSTQEKEMEKLVQGDQDKTEQLEQLKKENDHLFLSLTEQRKDQKKLEQTVEQMKQNETTAMKKQQELMDENFDLSKRLSENEIICNALQRQKERLEGENDLLKRENSRLLSYMGLDFNSLPYQVPTSDEGGARQNPGLAYGNPYSGIQESSSPSPLSIKKCPICKADDICDHTLEQQQMQPLCFNCPICDKIFPATEKQIFEDHVFCHSL

Variants of: B1
Assay: LUMIER assay; HEK293ET cell lysates; bacterially expressed GST bait; read off a plot

| Variant | response |
| --- | --- |
| chain 1 A452S | ~22 fold binding |
| chain 1 N457S | ~15 fold binding |
| chain 1 R349A | ~33 fold binding |
| chain 1 F459S | ~52 fold binding |
| chain 1 L351A | ~38 fold binding |
| chain 1 Q352A | ~44 fold binding |
| chain 1 E348A | ~49 fold binding |
| chain 1 L347A | ~42 fold binding |
| chain 1 T350A | ~51 fold binding |
